Results reported in patent US10704056B2, “Constitutively active ABA receptor mutants” (The Regents of the University of California, priority 2011, dated 2020).

Assays:
HAB1 = experiment: In vitro PP2C phosphatase (pNPP) receptor activation assay with HAB1; type: biochemical, Arabidopsis; conditions: 600 nM GST-HAB1, 0-4800 nM receptor, no ABA
Description: Recombinant receptor proteins were produced as follows: Coding sequences were cloned into pET28 yielding 6×HIS (SEQ ID NO:173) fusions proteins and transformed into E. coli expression strain BL21. […]. Cells were stored at −80° C. before purification. After thawing, cells were sonicated on ice five times for 30 sec with 30 sec resting intervals. A cleared lysate was obtained after centrifugation at 12,000×g for 10 min and applied to 1 ml of Ni-NTA column (Qiagen) and washed with 20 column volumes of Buffer A containing 30 mM imidazole. Bound protein was eluted with 10 ml of Buffer A with 250 mM imidazole. The elutate was dialyzed against TBS. The purified recombinant proteins were then used together with recombinant phosphatases in receptor assays. In these assays, receptor activity is indicated by inhibition of phosphatase activity, as inferred from initial reaction velocities for GST-HAB1 mediated hydrolysis of the synthetic phosphatase substrate pNPP. Reactions contained 600 nM GST-HAB1 and either 0, 600, 1200, 2400 or 4800 nM 6×His-PYR1 or variants in a reaction buffer consisting of 33 mM Tris-OAc, pH 7.9, 66 mM KOAc, 0.1% BSA, 25 mM Mn(OAc)2, 50 mM pNPP. To infer the level of receptor activation with respect to fully activated wild type receptor, control reactions were also conducted using saturating levels of (+)-ABA (10 μM), and 600 nM wild type PYR1 and HAB1. Immediately after mixing proteins and substrates, reactions were monitored for hydrolysis of pNPP at A405 at ˜10 second intervals over 20 minutes using a Wallac plate reader. Reaction progressions were plotted, initial velocities calculated and converted to specific activities using a standard curve for 4-nitrophenol made in the same buffer system volumes/plate reader used for enzymatic reaction measurements. The values shown are expressed as %-control phosphatase activity levels as measured in the absence of receptor protein. The average specific activity level of GST-HAB1 utilized in our experiments was 4000 μmol/min/mg, when assayed on the phosphatase substrate pNPP in the absence of PYR1 or other receptors, as described using the methods above.
(§1) Full length ABI1 and ABI2 were cloned into a modified pSUMO vector (LifeSensors Inc, USA) vector yielding 6×His-SUMO fusion proteins; GST-HAB1 was expressed and purified as previously described (Park et al., 2009). Mutant receptors were cloned into pET28 yielding 6×His-fusion proteins. […]. The cultures were pre-incubated 2 hours at 30° C. and, for PP2C expression, media was supplemented with 4 mM MnCl2 one hour after inoculation. After pre-incubation, IPTG was added (1 mM) and cells were induced at 15° C. for 16 hours, after which they were collected by centrifugation, resuspended in 5 ml Buffer A (50 mM NaH2PO4, 300 mM NaCl) +10 mM imidazole, pH 8.0 and stored at −80° C. For purification, cells were thawed, sonicated on ice (60 seconds) and a cleared lysate was then applied a 1 ml-bed volume column of Ni-NTA (Qiagen, USA), washed with 20 column volumes of Buffer A+30 mM imidazole and bound protein eluted with 1 ml of Buffer A+250 mM imidazole. For receptors, the elutate was dialyzed against TBS and for PP2Cs, fusion proteins were desalted by passage over a Sephadex G50 column.
The purified receptors and phosphatases were then used in receptor assays where receptor activation is indicated by inhibition of phosphatase activity, as inferred from initial reaction velocities for PP2C-mediated hydrolysis of the synthetic phosphatase substrate pNPP in reactions containing 600 nM PP2C and either 0, 600, 1200, 2400 or 4800 nM receptor. The receptor assay buffer consisted of 33 mM Tris-OAc, pH 7.9, 66 mM KOAc, 0.1% BSA, 25 mM Mn(OAc)2, 0.1%13-ME and 50 mM pNPP. Immediately after mixing proteins and substrates, reactions were monitored for hydrolysis of pNPP at A405 at ˜2 minutes intervals using a Wallac plate reader. […]

ABI1 = biological target: T1, ABI1 (Arabidopsis thaliana, UniProt P49597); experiment: In vitro PP2C phosphatase (pNPP) receptor activation assay with ABI1; type: biochemical; conditions: 600 nM PP2C, 0-4800 nM receptor, no ABA
T1 construct: Full length ABI1 and ABI2 were cloned into a modified pSUMO vector; made in house; host or cells: E. coli BL21 (DE3) pLysS
T1 sequence (P49597 1-434): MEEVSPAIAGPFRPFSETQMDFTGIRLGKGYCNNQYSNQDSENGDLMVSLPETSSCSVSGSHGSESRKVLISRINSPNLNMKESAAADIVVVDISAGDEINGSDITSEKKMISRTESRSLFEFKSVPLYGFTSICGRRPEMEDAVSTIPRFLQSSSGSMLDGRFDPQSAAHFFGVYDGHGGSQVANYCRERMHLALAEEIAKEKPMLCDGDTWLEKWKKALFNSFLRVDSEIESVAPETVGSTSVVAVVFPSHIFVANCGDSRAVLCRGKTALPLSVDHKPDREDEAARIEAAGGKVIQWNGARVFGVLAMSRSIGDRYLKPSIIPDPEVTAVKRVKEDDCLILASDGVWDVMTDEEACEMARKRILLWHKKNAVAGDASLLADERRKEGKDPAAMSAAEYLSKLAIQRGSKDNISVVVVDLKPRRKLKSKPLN
Description: as §1
The purified receptors and phosphatases were then used in receptor assays where receptor activation is indicated by inhibition of phosphatase activity, as inferred from initial reaction velocities for PP2C-mediated hydrolysis of the synthetic phosphatase substrate pNPP in reactions containing 600 nM PP2C and either 0, 600, 1200, 2400 or 4800 nM receptor. The receptor assay buffer consisted of 33 mM Tris-OAc, pH 7.9, 66 mM KOAc, 0.1% BSA, 25 mM Mn(OAc)2, 0.1%13-ME and 50 mM pNPP. Immediately after mixing proteins and substrates, reactions were monitored for hydrolysis of pNPP at A405 at ˜2 minutes intervals using a Wallac plate reader. Reaction progressions were plotted, initial velocities calculated and converted to specific activities by comparison to a standard curve for 4-nitrophenol made in the same buffer system. PP2C activity values shown in figures are expressed as %-control phosphatase activity levels, as measured under identical reaction conditions in the absence of receptor protein. The average specific activity level of GST-HAB1, 6×His-SUMO-ABI1 and 6×His-SUMO-ABI2 utilized in our experiments was 4500 (GST-PP2C) or 2500 (SUMO-PP2C) μmol/min/mg, when assayed using the phosphatase substrate pNPP in the absence of PYR1 or other receptors.

B1: PYL2^CA3: PYL2 mutant (H65P, V87F, F165V); expressed in plants as 35S-driven GFP fusion (protein)
chain: HHHHHHMSSSPAVKGLTDEEQKTLEPVIKTYHQFEPDPTTCTSLITQRIHAPASVVWPLIRRFDNPERYKPFVKRCRLISGDGDVGSVREVTFISGLPASTSTERLEFVDDDHRVLSFRVVGGEHRLKNYKSVTSVNEFLNQDSGKVYTVVLESYTVDIPEGNTEEDTKMVVDTVVKLNLQKLGVAATSAPMHDDE
basal receptor activity (inhibition of HAB1 phosphatase activity in the absence of ABA) (HAB1): highly activated in the absence of ABA | constitutive receptor activity on ABI1 in the absence of ABA (ABI1): active towards multiple PP2Cs
